In US9512178B2, “Neurogenic brain-derived neurotrophic factor peptides” (Research Foundation for Mental Hygiene, Inc., priority 2012, dated 2016):

Key:
[1] = direct administration into the CNS; cited from earlier work
[2] = in vivo; cited from earlier work
TrkB receptor = target: T1, TrkB receptor (Mus musculus, UniProt P15209); experiment: TrkB phosphorylation (Tyr 706) and TrkB level in primary E18 hippocampal cells, with or without K252a; assay type: cell-based; settings: 20 ng/ml
T1 construct: endogenous in cells; host or cells: primary hippocampal neurons from embryonic day 18 C57BL/6 mice
T1 sequence (P15209 32-821): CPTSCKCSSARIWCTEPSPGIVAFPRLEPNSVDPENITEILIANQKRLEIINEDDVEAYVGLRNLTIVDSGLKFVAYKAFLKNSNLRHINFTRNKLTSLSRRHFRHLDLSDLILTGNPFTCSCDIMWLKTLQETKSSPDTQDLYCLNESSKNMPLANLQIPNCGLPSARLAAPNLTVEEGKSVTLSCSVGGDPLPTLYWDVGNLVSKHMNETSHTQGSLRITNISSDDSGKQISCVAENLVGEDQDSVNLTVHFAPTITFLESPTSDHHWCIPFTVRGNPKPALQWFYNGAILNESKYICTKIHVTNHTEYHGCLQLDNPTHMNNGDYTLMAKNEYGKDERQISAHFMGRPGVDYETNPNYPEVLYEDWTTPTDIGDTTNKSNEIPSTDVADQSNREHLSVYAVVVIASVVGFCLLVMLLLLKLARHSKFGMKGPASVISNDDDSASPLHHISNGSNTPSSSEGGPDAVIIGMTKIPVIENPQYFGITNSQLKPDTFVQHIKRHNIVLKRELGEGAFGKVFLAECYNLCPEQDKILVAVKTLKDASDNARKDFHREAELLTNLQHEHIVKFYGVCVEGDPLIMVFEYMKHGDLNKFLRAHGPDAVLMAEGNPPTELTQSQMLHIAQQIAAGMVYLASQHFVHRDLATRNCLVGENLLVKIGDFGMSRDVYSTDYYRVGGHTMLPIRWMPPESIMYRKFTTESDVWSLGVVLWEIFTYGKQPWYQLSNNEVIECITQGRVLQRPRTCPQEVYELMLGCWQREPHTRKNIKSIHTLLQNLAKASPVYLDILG
Protocol: Peptides were dissolved in water in serial dilutions of 10 mM, 1 mM, 100 μM and 10 μM from which the necessary amount was added directly to the culture medium to a final concentration of 0.05 μM, 1 μM, or 10 μM. The BDNF (Peprotech, NJ, USA) was used as a reference in concentrations of 20 ng/ml (0.79 nM) and 100 ng/ml (3.95 nM). Cycloheximide (CHX) (Sigma-Aldrich, St Louis, Mo., USA) was used for blocking protein synthesis. CHX original stock was 100 mg/ml (355.4 mM) in DMSO; from a second stock of 35.54 mM in DMSO, the dilutions were made to the final concentrations of 100 μM. The K252a (CALBIOCHEM/EMD) was used to inhibit the TrkB Receptor. From a stock of 100 μM in DMSO, K252a was diluted to a final working concentration of 200 nM. The E18 primary hippocampal cells were pre-treated with CHX or K252a 1 h prior to the addition of the peptides or BDNF and a time course of these treatments for 15 min, 60 min and 2 days was studied.
Following treatment in 6-well plates, cells were washed 2× in glucose buffered saline, GBS (5.4 mM KCl, 138 mM NaCl, 22 mM glucose, and 2 mM Na—KPO pH 7.2), and then lysed by 5 min incubation on ice in 100 or 150 μl of ice-cold RIPA buffer (PBS, 1% w/v NP-40 from Fisher Scientific, 0.1% w/v SDS, and 0.5% w/v sodium desoxycholate) containing 1 mM AEBSF (Gold Biotechnology, St. Louis, Mo., USA), 10 μg/ml aprotinin (Sigma-Aldrich, St. Louis, Mo., USA), and 20 μg/ml of leupeptin and pepstatin (US Biochemicals, Cleveland, Ohio, USA), and phosphatase inhibitors: NaF, Na orthovanadate, (3-glycerophosphate, and microcystein (Sigma-Aldrich, St. Louis, Mo., USA). Extracts were prepared by collecting and pooling a minimum of 2 wells by scraping, and lysates were centrifuged at 20,000×g for 10 min at 4° C. Protein concentration of each cell lysate was determined using the BCA kit (Thermo Scientific, Rockford, Ill., USA). The lysates (7.5-20 μg total protein) were separated on 10% SDS-PAGE gels (except for BDNF where 12% gels were employed) and transferred to 0.45 μm PVDF membrane (Pall, Pensacola, Fla., USA) for probing with antibodies as noted. Blots were blocked for 1 hr at 37° C. in 1×TBST (0.05% Tween 20 in TBS) containing 5% w/v blotting grade dry milk (Bio-rad, Hercules, Calif., USA), incubated in primary antibody overnight in blocking buffer at 4° C., washed 3×10 min in TBST at room temperature, followed by incubation with secondary antibody, i.e., peroxidase-conjugated anti-mouse or anti rabbit IgG (Jackson ImmunoResearch Laboratories, West Grove, Pa., USA) diluted in blocking buffer. Blots were washed 3×10 min in TBST and immunoreactive protein bands were visualized with enhanced chemiluminescence (ECL) reagents (Pierce, Rockford, Ill., USA). The ECL films of the blots were scanned and analyzed using Multi Gauge software version 3.0 (Fujifilm, Tokyo, Japan).
The following primary antibodies were used: rabbit polyclonal anti-NFM (1:1000; Chemicon/Millipore, Billerica, Mass., USA); mouse monoclonal anti-NeuN, clone A60 (1:500; Millipore, Billerica, Mass., USA); rabbit polyclonal anti-Tuj-1, (3—III-tubulin (Covance; 1:800, Emeryville, Calif., USA); mouse monoclonal SMI 52 to the adult isoforms of MAP-2, MAP2a,b (1:1000; Covance, Emeryvilly, Calif., USA); rabbit polyclonal anti-Synapsin I (1:2000; Stressgen, Farmingdale, N.Y., USA); rabbit monoclonal anti-PSD95 (1:1000; Cell signaling, Danvers, Mass., USA); anti tau 92e (1:10000); mouse monoclonal anti-BDNF (1:1000; Calbiochem, Gibbstown, N.J., USA); rabbit polyclonal anti-TrkB (total) (1:500; Santa Cruz Biotechnology, Santa Cruz, Calif., USA); rabbit polyclonal anti-pTrkB (Tyr706) (1:400; Santa Cruz Biotechnology, Santa Cruz, Calif., USA), TrkC (1:1000; Cruz Biotechnology, Santa Cruz, Calif., USA); and pTrkY490 (1:500; Upstate USA Inc., Charlottesville, Va., USA). For loading control, the blots were developed with rabbit polyclonal antibody to GAPDH (1:2000; Santa Cruz Biotechnology, Santa Cruz, Calif., USA). […]

TrkC = target: T2, TrkC (Homo sapiens, UniProt Q16288); experiment: Trk phosphorylation and TrkC expression in TrkC stably-expressing NIH-3T3 cells; assay type: cell-based; settings: 20 ng/mL
T2 construct: expressed in transfected cells; host or cells: NIH-3T3 fibroblasts
T2 sequence (Q16288 32-839, species assumed): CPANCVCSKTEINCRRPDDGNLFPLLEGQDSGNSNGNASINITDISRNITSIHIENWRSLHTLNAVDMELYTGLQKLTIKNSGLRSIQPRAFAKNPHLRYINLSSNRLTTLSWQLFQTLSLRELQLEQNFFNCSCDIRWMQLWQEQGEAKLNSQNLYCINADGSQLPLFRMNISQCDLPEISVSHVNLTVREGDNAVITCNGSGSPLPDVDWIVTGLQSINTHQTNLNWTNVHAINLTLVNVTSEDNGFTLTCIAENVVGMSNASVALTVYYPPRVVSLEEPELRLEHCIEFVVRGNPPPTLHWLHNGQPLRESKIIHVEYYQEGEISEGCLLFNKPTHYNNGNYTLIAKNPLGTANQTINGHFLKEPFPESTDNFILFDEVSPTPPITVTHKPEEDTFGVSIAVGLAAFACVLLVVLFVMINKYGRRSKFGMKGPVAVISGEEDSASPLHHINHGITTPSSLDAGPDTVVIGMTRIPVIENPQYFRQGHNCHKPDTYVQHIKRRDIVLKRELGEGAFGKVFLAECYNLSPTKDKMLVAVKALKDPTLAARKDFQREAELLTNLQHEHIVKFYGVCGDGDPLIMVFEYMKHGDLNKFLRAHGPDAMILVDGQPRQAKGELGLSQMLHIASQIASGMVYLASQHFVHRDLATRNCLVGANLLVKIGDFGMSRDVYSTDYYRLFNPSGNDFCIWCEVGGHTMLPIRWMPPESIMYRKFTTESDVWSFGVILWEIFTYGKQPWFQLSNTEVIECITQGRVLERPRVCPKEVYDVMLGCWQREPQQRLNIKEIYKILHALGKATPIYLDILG

- increase in the phosphorylation of the TrkB receptor (TrkB receptor; 5 min, without K252a): significant
- activation of TrkB (pTrkB Tyr 706 normalized to total TrkB) (TrkB receptor; 1 h): strong and significant activation
B1: BDNF: Brain derived neurotrophic factor (Peprotech), used as a reference at 20 ng/ml and 100 ng/ml (protein, UniProt P23560 19-247, looked up)
Neurotrophic factor BDNF …: APMKEANIRGQGGLAYPGVRTHGTLESVNGPKAGSRGLTSLADTFEHVIEELLDEDQKVRPNEENNKDADLYTSRVMLSSQVPLEPPLLFLLEEYKNYLDAANMSMRVRRHSDPARRGELSVCDSISEWVTAADKKTAVDMSGGTVTVLEKVPVSKGQLKQYFYETKCNPMGYTKEGCRGIDKRHWNSQCRTTQSYVRALTMDSKKRIGWRFIRIDTSCVCTLTIKRGR
- undesirable effects [1]: weight loss, dysaesthesias (impairment of sensation), and in some cases, pain
- blood brain barrier (BBB) and intraparenchymal penetrations [2]: poor
- plasma half-life [2]: less than 1 min
- activation of TrkC receptor (TrkC): neither the peptides nor BDNF were able to activate this receptor
- expression of TrkC (TrkC): neither BDNF (20 ng/mL) nor peptides B-5 (1 μM) and B-3 (1 μM) were able to modify the expression of TrkC
